Measurements reported in patent publication US20210147564A1 (TENEOBIO, published 2021).
Numbering of substitutions follows the chain as printed.

T1: human BCMA ECD protein (Abcam ab50089) (human, UniProt Q02223 1-54)
T1 construct: extracellular domain; Bought protein; also called human BCMA protein; recombinant BCMA protein
T1 sequence (looked up): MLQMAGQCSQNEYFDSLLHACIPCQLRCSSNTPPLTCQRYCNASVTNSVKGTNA

T2: human BCMA on NCI-H929 cells (human, UniProt Q02223 1-184)
T2 construct: whole, on cells; also called H929 human cells that express BCMA; BCMA-expressing cell line (H929)
T2 sequence (looked up): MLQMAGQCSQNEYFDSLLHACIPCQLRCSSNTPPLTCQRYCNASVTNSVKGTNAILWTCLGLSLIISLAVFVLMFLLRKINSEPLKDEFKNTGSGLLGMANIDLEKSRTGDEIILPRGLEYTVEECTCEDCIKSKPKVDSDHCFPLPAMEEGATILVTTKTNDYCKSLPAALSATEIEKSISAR

B1: heavy chain-only anti-BCMA antibody (UniAb) with the heavy chain variable region of SEQ ID NO: 12 (antibody, V domains shown)
VH: QVQLVESGGGLVQPGGSLRLSCAASGFTFTNHAMSWVRQAPGKGLELVSSISGNGRTTYYADSVKGRFTISRDISKNTLDLQMNSLRAEDTAVYYCAKDGGETLVDSRGQGTLVTVSS
notes: Heavy chain-only antibody expressed in HEK cells (CH1 deleted, no light chain), tested as supernatant; also called anti-BCMA UniAb; HCAb
B2: heavy chain-only anti-BCMA antibody (UniAb) with the heavy chain variable region of SEQ ID NO: 13 (antibody, V domains shown)
VH: QVQLVESGGGLVQPGGSLRLSCAASGFTFSSHAMTWVRQAPGKGLEWVAAISGSGDFTHYADSVKGRFTISRDNSKNTVSLQMNNLRAEDTAVYYCAKDEDGGSLLGYRGQGTLVTVSS
notes: as for B1
B3: heavy chain-only anti-BCMA antibody (UniAb) with the heavy chain variable region of SEQ ID NO: 14 (antibody, V domains shown)
VH: B2 VH with Q1E, V5L, V12I, A49S, F57Y, S80Y, N85S, T91S, Y108H
notes: as for B1
B4: heavy chain-only anti-BCMA antibody (UniAb) with the heavy chain variable region of SEQ ID NO: 15 (antibody, V domains shown)
VH: EVQLLESGGGLVQPGGSLRLSCAASGFTFSSYAMSWVRQAPGKGLEWVSSISGSGDYIYYADSVKGRFTISRDISKNTLYLQMNSLRAEDTAVYYCAKEGTGANSSLADYRGQGTLVTVSS
notes: as for B1

Target: T1, human BCMA ECD protein (Abcam ab50089)
Assay: ELISA on human BCMA ECD; Octet off-rate
Method: Supernatants of 4 antibodies were tested for binding in a standard ELISA assay to human and cynomolgus BCMA. Binding to recombinant BCMA protein was determined by ELISA using human BCMA ECD obtained from Abcam (ab50089). The BCMA ECD protein was used at a concentration of […] to capture UniAbs at 50 ng/mL. Binding of UniAbs was detected with a goat anti-human IgG HRP conjugated antibody (ThermoFisher 31413). All antibodies were diluted in 1×TBS with 0.05% Tween-20 and 1% dry milk powder.

Row | Binder | binding result
1 | B1 | binds
2 | B2 | binds
3 | B3 | binds
4 | B4 | binds

Target: T2, human BCMA on NCI-H929 cells
Assay: flow cytometry on H929 cells
Method: Supernatants of the 4 test anti-BCMA antibodies were also tested by flow cytometry for binding to H929 cells. The samples were measured by flow cytometry using a Guava easyCyte 8HT instrument from EMD Millipore and analyzed using guavaSoft. Bound antibodies were detected with goat anti-human IgG F(ab)2 conjugated to PE (Southern Biotech 2042-09). All antibodies were diluted in PBS with 1% BSA. Positive staining was determined by comparison to staining with a human IgG1 isotype control.

Row | Binder | binding result
5 | B1 | binds
6 | B2 | binds
7 | B3 | binds
8 | B4 | binds
